# Measured values taken from the nanobody polyreactivity screen of Harvey et al. (2022).
# Test: yeast display, Sf9 membrane polyspecificity reagent, FACS + sequencing; frameworks hold sequencing errors
# Outline: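 Synthetic nanobody libraries on Saccharomyces cerevisiae BJ5465 were galactose-induced for 36–48 hours, stained 1 hour at 4 °C with 10% biotinylated, detergent-solubilized Sf9 membrane reagent and enriched on streptavidin microbeads. FACS then separated cells into low and high (top ~1%) gates by anti-HA (expression) and streptavidin (reagent binding) fluorescence. Genes were colony-PCR amplified, MiSeq 2 × 250 sequenced and CDR-length filtered. A clone's polyreactivity label is that of its gate of origin.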
row,Sequence,polyreactivity (PSR sort gate)
1,QVQLVESGGGLVQAGGSLRLSCAASGLIFAHYAMGWYRQAPGTERELVAGITSGGSTNYADSVKGRFTISRDNAKNTVYLQMNSLKPEDTAVYYCNADRAGFLGFYLYDYWGQGTQVTVSS,low polyreactivity
2,QVQLVESGGGLVQAGGSLRLSCAASGLIFARNAMGWYRQAPGKERELVAAISRSGSTNYADSVKGRFTISRDNAKNTVYLQMNSLIPEDTAVYYCAAGPWGTGHYVQGPVYYYRYDYWGQGTQVTVSS,low polyreactivity
3,QVQLVESGGGLVQAGGSLRLSCAASGLIFARNAMGWYRQAPGKERELVAAISSSGNTYADSVKGRFTISRDNAKNTVYLQMNSLKPEDTAVYYCNKYGVVLPGFDYWGQGTQVTVSS,high polyreactivity
4,QVQLVESGGGLVQAGGSLRLSCAASGLIFDDYDMGWYRQAPGKERELVAAISLSGGSTFYADSVKGRFTISRDNAKNTVYLLMNSLKPEDTAVYYCAAQARRAYVQTRKYYWGQGTQVTVSS,high polyreactivity
5,QVQLVESGGGLVQAGGSLRLSCAASGLIFDINAMGWYRQAPGKERDLVAAISFSDGITYYADSVKGRFTISRDNAKNTVYLHMNSLKPEDTAVYYCAVDYRIYRSGPMDYWGQGTQVTVSS,high polyreactivity
6,QVQLVESGGGLVQAGGSLRLSCAASGLIFDYYAMGWYRQAPGKERELVAAITSSSGITYYADSVKGRFTISRDNAKNTVYLQMNSLKPEDTAVYYCAAYTTYKLYEYDYWGQGTQVTVSS,low polyreactivity
7,QVQLVESGGGLVQAGGSLRLSCAASGLIFEEYAMGWYRQAPGKERELVAGIDSSGSTNYADSVKGRFTISRDNAKNTVYLQMNSLKPEDTAVYYCTARGYYPRWYYVFRGNYWGQGTQVTVSS,low polyreactivity
8,QVQLVESGGGLVQAGGSLRLSCAASGLIFFYYAMGWYRQAPGKERELVATINWNGGSTYYADSVKGRFTISRDNAKNTVYLQMNSLKPEDTAVYYCAADAPAGGDSDNDYWGQGTQVTVSS,high polyreactivity
9,QVQLVESGGGLVQAGGSLRLSCAASGLIFGFYAMGWYRQAPGKERELVAAINSGGITYYADSVKGRFTISRDNAKNTVYFQMNSLKPEDTAVYYCNKDSHISTAYDYWGQGTQVTVSS,low polyreactivity
10,QVQLVESGGGLVQAGGSLRLSCAASGLIFGGNAMGWYRQAPGKERELVAAISRTGGRTYYADSVKGRFTISRDNAKNTVYLQMNSLKPDDTAVYFCAAAAQRPEGYYWGQGTQVTVSS,high polyreactivity
11,QVQLVESGGGLVQAGGSLRLSCAASGLIFGGNAMGWYRQAPGKERELVAAITYRTGSTYYADSVKGRFTISRDNAKITVYLQMNSLKPEDTAVYDCAAAVSLGYPVAFYYWGQGTQVTVSS,low polyreactivity
12,QVQLVESGGGLVQAGGSLRLSCAASGLIFGGYTMGWYRQAPGKERELVAAIDSGGSTKYADSVKGRFTISRDNAKNTVYLQMNSLKPEDTAVYYCAARDYYAWRYRYHHEVSEFDYWGQGTHVTVSS,low polyreactivity
13,QVQLVESGGGLVQAGGSLRLSCAASGLIFGNNAMGWYRQAPGKERELVAAISWSTGGSTYYADSVKGRFTISRDNAKNTVYLQMNSLKPEDTAVYYCAAQYSYGEYWGYDYWGQGTQVTVSS,low polyreactivity
14,QVQLVESGGGLVQAGGSLRLSCAASGLIFGRYAMGGYRQAPGKEREFVAAITWRVGTTYYADSVKGRFTISRDNAKITVYLQMNSLKPEDTAVYYCAARSRTGRYDYWGQGTQVTVSS,high polyreactivity
15,QVQLVESGGGLVQAGGSLRLSCAASGLIFGSYAMGWYRQAPGKERELVAAINKSGGSTYYADSVKGRFTISRDNAKNTVYLQMNSLKPEDTAVYYCAKGRSKYYQPGQRDYWGQGTQVTVSS,high polyreactivity
16,QVQLVESGGGLVQAGGSLRLSCAASGLIFGTYAMGWYRQAPGKERELVAVISSSGGSTYYADSVKGRFTISRDNAKNTVYLQMNSLKPEDTAVYYCNARAFRQGHFEYDYWGQGTQVTVSS,low polyreactivity
17,QVQLVESGGGLVQAGGSLRLSCAASGLIFGVNAMGLYRQAPGTESELVAAITSRGGSTYYADSVKGRFTISRDNAKNTVYLQMNSLKPEDTAVDYCAAKYAYYEPYSWRPQRTYNYWGQGTQVTVSS,high polyreactivity
18,QVQLVESGGGLVQAGGSLRLSCAASGLIFGWNAMGWYRQAPGKERELVAAITWNGGSTYYADSVKGRFTISRDNAKITVSLQMNSLKPEDTAVYYCAARVGWNIRGYDYWGQGTQVTVSS,low polyreactivity
19,QVQLVESGGGLVQAGGSLRLSCAASGLIFGYYAMGCYRQAPGKERELVAAISSSGSTYYADSVKGRFTISCDNEKNTVYLQMNSLKPEDTAVYYCNVDISSYGGDYWGQGTQVTVSS,low polyreactivity
20,QVQLVESGGGLVQAGGSLRLSCAASGLIFGYYAMGWYRQAPGKEREFVAAIDGSDGTTYYADSVKGRFTISRDNAKNTVYLQMNSLKPEDTAVYFCNADSSSYSSDLGYDYWGQGTQVTVSS,low polyreactivity
21,QVQLVESGGGLVQAGGSLRLSCAASGLIFGYYAMGWYRQAPGKESELVDAFSFSGGSTYYADSVKGRFTISRDNAKNTVYLQMNSLKPEDTAVYYCAADLDGSSEYEYWGQCTQVTVSS,low polyreactivity
